Experiment [1] has as its target T1, mouse CD3 (mouse).
T1 chain: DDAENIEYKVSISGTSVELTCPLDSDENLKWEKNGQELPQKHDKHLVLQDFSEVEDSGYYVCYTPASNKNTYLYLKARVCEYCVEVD
The experiment can be described thus: SPR Biacore T200, bispecific antibody captured on Protein A/G, antigen as analyte, 37 C. How it is done: (§1) Anti-mouse CTLA4/anti-mouse CD3 bispecific antibodies (hUH02UL01/2C11-F760) purified and prepared by the method of Reference Example 3-1 were analyzed for their antigen-antibody reactions with each antigen (mCTLA4 and mCD3) using Biacore T200 (GE Healthcare). The running buffer used was HBS-EP+ at pH7.4, and measurements were taken at 37° C. Protein A/G was immobilized onto a Sensor Chip CM4 by amine coupling. hUH02UL01/2C11-F760 was captured onto the sensor chip, and then the antigen (mouse CTLA4 or mouse CD3) was allowed to interact as an analyte (for 120 seconds for mouse CTLA4 and for 90 seconds for mouse CD3), and changes in the bound amount were observed. The running buffer was used for dilution of hUH02UL01/2C11-F760. The measurement results were analyzed by curve fitting using the Biacore T200 Evaluation Software (GE Healthcare) to calculate the association rate constants ka (1/Ms) and the dissociation rate constants kd (l/s). From those values, the dissociation constants KD (M) were determined.

The target of experiment [2] is T2, mouse CTLA4 (mouse, UniProt P09793 36-161, limits assumed).
T2 construct: Soluble antigen used as the analyte in Biacore; also called mCTLA4
The description is as above. On the procedure:
as §1

Experiment [3] concerns the target T3, mouse FcgRII (mouse, UniProt P08101 30-210).
T3 construct: Used as the soluble analyte in Biacore; also called mFcgRII
T3 sequence (looked up): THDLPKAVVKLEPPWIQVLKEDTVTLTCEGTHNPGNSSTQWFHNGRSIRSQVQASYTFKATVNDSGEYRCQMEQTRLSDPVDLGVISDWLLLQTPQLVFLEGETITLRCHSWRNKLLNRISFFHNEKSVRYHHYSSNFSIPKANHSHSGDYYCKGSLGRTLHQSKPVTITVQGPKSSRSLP
The experiment can be described thus: SPR Biacore T200, antibody captured on Protein A/G, FcgR as analyte, 25 C. How it is done:
(§2) Anti-mouse CTLA4 antibody hUH02hUL01-mFa55 and control antibody hUH02hUL01-mIgG2a (the heavy chain variable region UH02 is SEQ ID NO: 28, the light chain variable region UL01 is SEQ ID NO: 29, the heavy chain constant region mIgG2a is SEQ ID NO: 32, and the light chain constant region mk1 is SEQ ID NO: 31) purified and prepared by the method of Reference Example 2-1 were analyzed for their antigen-antibody reactions with various mouse FcgRs (mFcgRI, II, III, and IV) using Biacore T200 (GE Healthcare). The running buffer used was 20 mmol/L ACES, 150 mmol/L NaCl, 0.05% (w/v) Tween20 at pH7.4, and measurements were taken at 25° C. Protein A/G was immobilized onto a Sensor Chip CM7 by amine coupling. hUH02hUL01-mFa55 was captured onto the sensorchip, and then FcgR was allowed to interact as an analyte for 120 seconds, and change in the bound amount was observed. The running buffer was used for dilution of hUH02hUL01-mFa55. The measurement results were analyzed by curve fitting using the Biacore T200 Evaluation Software (GE Healthcare) to calculate the association rate constants ka (1/Ms) and the dissociation rate constants kd (l/s). From those values, the dissociation constants KD (M) were determined.

Experiment [4] concerns the target T4, mouse FcgRIV (mouse, UniProt A0A0B4J1G0 21-203).
T4 construct: Used as the soluble analyte in Biacore; also called mFcgRIV
T4 sequence: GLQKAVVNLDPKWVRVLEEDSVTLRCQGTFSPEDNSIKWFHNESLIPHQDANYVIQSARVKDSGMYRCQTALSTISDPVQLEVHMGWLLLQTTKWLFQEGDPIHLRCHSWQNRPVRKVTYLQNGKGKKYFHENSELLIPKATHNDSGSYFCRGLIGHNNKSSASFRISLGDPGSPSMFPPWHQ
Described as above. On the procedure: as §2

For experiment [5], the target named is T5, mouse FcgRIII (mouse, UniProt P08508 31-215).
T5 construct: Used as the soluble analyte in Biacore; also called mFcgRIII
T5 sequence (looked up): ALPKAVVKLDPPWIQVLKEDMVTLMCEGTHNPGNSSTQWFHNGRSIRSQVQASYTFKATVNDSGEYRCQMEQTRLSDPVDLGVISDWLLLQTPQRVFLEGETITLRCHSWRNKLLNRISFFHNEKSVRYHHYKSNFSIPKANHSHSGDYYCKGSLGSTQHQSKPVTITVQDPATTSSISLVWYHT
The experiment is described as above. How it is done:
as §2

Experiment [6] has as its target T6, mouse FcgRI (mouse, UniProt P26151 25-297).
T6 construct: Used as the soluble analyte in Biacore; also called mFcgRI
T6 sequence (looked up): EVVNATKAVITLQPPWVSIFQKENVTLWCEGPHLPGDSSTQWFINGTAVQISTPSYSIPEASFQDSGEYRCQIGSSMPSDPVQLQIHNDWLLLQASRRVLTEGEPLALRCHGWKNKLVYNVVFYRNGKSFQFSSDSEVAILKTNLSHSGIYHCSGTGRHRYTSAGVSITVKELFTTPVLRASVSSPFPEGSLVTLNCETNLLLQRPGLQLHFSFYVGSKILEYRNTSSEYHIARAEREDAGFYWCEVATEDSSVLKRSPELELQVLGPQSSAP
The description is as above. How it is done:
as §2

This is an account of results in patent US20180326058A1 (Chugai, published 2018).

B1: anti-mouse CTLA4/anti-mouse CD3 bispecific antibody (hUH02UL01/2C11-F760) (bispecific antibody, human IgG1, kappa, N297A)
heavy 1: QVQLQESGPGLVKPSETLSLTCTVSGYSISSGYGWNWIRQPPGKGLEWIGFIYYEGSTYYNPSIKSRISITRDTSKNQFFLQVNSVTTEDTATYYCARQTGYFDYWGQGTLVTVSSASTKGPSVFPLAPSSKSTSGGTAALGCLVKDYFPEPVTVSWNSGALTSGVHTFPAVLQSSGLYSLSSVVTVPSSSLGTQTYICNVNHKPSNTKVDKKVEPKSCDKTHTCPPCPAPELRGGPKVFLFPPKPKDTLMISRTPEVTCVVVDVSHEDPEVKFNWYVDGVEVHNAKTKPREEQYASTYRVVSVLTVLHQDWLNGKEYKCKVSNKALPAPIEKTISKAKGQPREPQVYTLPPSRDELTKNQVSLTCLVKGFYPSDIAVEWESNGQPENNYKTTPPYLDSDGSFFLYSKLTVDKSRWQQGNVFSCSVMHEALHNHYTQESLSLSP
light 1: not shown
heavy 2: EVQLVESGGGLVQPGKSLKLSCEASGFTFSGYGMHWVRQAPGRGLESVAYITSSSINIKYADAVKGRFTVSRDNAKNLLFLQMNILKSEDTAMYYCARFDWDKNYWGQGTMVTVSSASTKGPSVFPLAPSSKSTSGGTAALGCLVKDYFPEPVTVSWNSGALTSGVHTFPAVLQSSGLYSLSSVVTVPSSSLGTQTYICNVNHKPSNTKVDKKVEPKSCDKTHTCPPCPAPELRGGPKVFLFPPKPKDTLMISRTPEVTCVVVDVSHEDPEVKFNWYVDGVEVHNAKTKPREEQYASTYRVVSVLTVLHQDWLNGKEYKCKVSNKALPAPIEKTISKAKGQPREPQVYTLPPSRKELTKNQVSLTCLVKGFYPSDIAVEWESNGQPENNYKTTPPYLDSDGSFFLYSKLTVDKSRWQQGNVFSCSVMHEALHNHYTQKSLSLSP
light 2: DIQMTQSPSSLPASLGDRVTINCQASQDISNYLNWYQQKPGKAPKLLIYYTNKLADGVPSRFSGSGSGRDSSFTISSLESEDIGSYYCQQYYNYPWTFGPGTKLEIKRTVAAPSVFIFPPSDEQLKSGTASVVCLLNNFYPREAKVQWKVDNALQSGNSQESVTEQDSKDSTYSLSSTLTLSKADYEKHKVYACEVTHQGLSSPVTKSFNRGEC
notes: also called T cell-redirecting antibody
For B1, in experiment [1], binding was characterised by a dissociation constant (Kd) of 1160 nM, the koff amounted to 0.0712 s⁻¹ and the kon came out at 61600 M⁻¹ s⁻¹. In experiment [2], this molecule had a Kd of 1.23 nM, a koff of 0.00053 s⁻¹ and a kon of 430000 M⁻¹ s⁻¹.

B2: control antibody hUH02hUL01-mIgG2a (antibody)
heavy: QVQLQESGPGLVKPSETLSLTCTVSGYSISSGYGWNWIRQPPGKGLEWIGFIYYEGSTYYNPSIKSRISITRDTSKNQFFLQVNSVTTEDTATYYCARQTGYFDYWGQGTLVTVSSAKTTAPSVYPLAPVCGDTTGSSVTLGCLVKGYFPEPVTLTWNSGSLSSGVHTFPAVLQSDLYTLSSSVTVTSSTWPSQSITCNVAHPASSTKVDKKIEPRGPTIKPCPPCKCPAPNLLGGPSVFIFPPKIKDVLMISLSPIVTCVVVDVSEDDPDVQISWFVNNVEVHTAQTQTHREDYNSTLRVVSALPIQHQDWMSGKEFKCKVNNKDLPAPIERTISKPKGSVRAPQVYVLPPPEEEMTKKQVTLTCMVTDFMPEDIYVEWTNNGKTELNYKNTEPVLDSDGSYFMYSKLRVEKKNWVERNSYSCSVVHEGLHNHHTTKSFSRTPGK
light: DIVMTQSPDSLAVSLGERATINCKSSQSLFNSNAKTNYLNWYQQKPGQPPKLLIYYASTRHTGVPDRFSGSGSGTDFTLTISSLQAEDVAVYYCQQWYDYPYTFGAGTKVEIKRADAAPTVSIFPPSSEQLTSGGASVVCFLNNFYPKDINVKWKIDGSERQNGVLNSWTDQDSKDSTYSMSSTLTLTKDEYERHNSYTCEATHKTSTSPIVKSFNRNEC
notes: Same variable regions as hUH02hUL01-mFa55, with an unmodified mouse IgG2a constant region
B2: the Kd in experiment [3] was found to be 780 nM; in experiment [4], 13 nM; in experiment [5], 250 nM; in experiment [6] it was 6.1 nM. The koff in experiment [3] came out at 1.1 s⁻¹; in experiment [4], 0.016 s⁻¹; in experiment [5], 0.51 s⁻¹; in experiment [6], 0.0047 s⁻¹. For the same molecule, the kon was 1.3e+06 M⁻¹ s⁻¹ in experiment [3], 1.2e+06 M⁻¹ s⁻¹ in experiment [4], 2e+06 M⁻¹ s⁻¹ in experiment [5] and 780000 M⁻¹ s⁻¹ in experiment [6].

B3: anti-mouse CTLA4 antibody hUH02hUL01-mFa55 (antibody, mouse IgG2a, kappa)
heavy: QVQLQESGPGLVKPSETLSLTCTVSGYSISSGYGWNWIRQPPGKGLEWIGFIYYEGSTYYNPSIKSRISITRDTSKNQFFLQVNSVTTEDTATYYCARQTGYFDYWGQGTLVTVSSAKTTAPSVYPLAPVCGDTTGSSVTLGCLVKGYFPEPVTLTWNSGSLSSGVHTFPAVLQSDLYTLSSSVTVTSSTWPSQSITCNVAHPASSTKVDKKIEPRGPTIKPCPPCKCPAPNLLGGPDVFIFPPKIKDVLMISLSPIVTCVVVDVSEDDPDVQISWFVNNVEVHTAQTQTHREDYNSTLRVVSALPIQHQDWMSGKEFKCKVNNKDLPAPIERTISKPKGSVRAPQVYVLPPPEEEMTKKQVTLTCMVTDFMPEDIYVEWTNNGKTELNYKNTEPVLDSDGSYFMYSKLRVEKKNWVERNSYSCSVVHEGLHNHHTTKSFSRTPGK
light: DIVMTQSPDSLAVSLGERATINCKSSQSLFNSNAKTNYLNWYQQKPGQPPKLLIYYASTRHTGVPDRFSGSGSGTDFTLTISSLQAEDVAVYYCQQWYDYPYTFGAGTKVEIKRADAAPTVSIFPPSSEQLTSGGASVVCFLNNFYPKDINVKWKIDGSERQNGVLNSWTDQDSKDSTYSMSSTLTLTKDEYERHNSYTCEATHKTSTSPIVKSFNRNEC
notes: Mouse IgG2a/kappa format; also called hUH02UL01-mFa55; ADCC-enhanced antibody
With B3, the Kd in experiment [3] was determined as 370 nM; in experiment [4], 1.9 nM; in experiment [5] it was 260 nM; in experiment [6], 2.5 nM. Besides, the koff turned out to be 0.76 s⁻¹ in experiment [3], 0.0028 s⁻¹ in experiment [4], 0.62 s⁻¹ in experiment [5] and 0.0031 s⁻¹ in experiment [6]. Besides, the kon in experiment [3] was found to be 2.1e+06 M⁻¹ s⁻¹; in experiment [4], 1.5e+06 M⁻¹ s⁻¹; in experiment [5], 2.4e+06 M⁻¹ s⁻¹; in experiment [6], 1.2e+06 M⁻¹ s⁻¹.
